Legend:
DinB (DNA polymerase IV) = target: T1, DinB (DNA polymerase IV) (Escherichia coli, UniProt Q47155 1-351); assay: NMR titration; BLI: 50 mM KPi pH 6.5, 50 mM NaCl, 10 mM MgSO4, 1 mM TCEP, 303 K; NMR titrations: NMR buffer (composition in Supplementary Table S2, not fully given), 298 K; details: protein: recombinant; tags: N-terminal His6; blunt; each strand also partly self-complementary (called self-complementary in text)
T1 sequence: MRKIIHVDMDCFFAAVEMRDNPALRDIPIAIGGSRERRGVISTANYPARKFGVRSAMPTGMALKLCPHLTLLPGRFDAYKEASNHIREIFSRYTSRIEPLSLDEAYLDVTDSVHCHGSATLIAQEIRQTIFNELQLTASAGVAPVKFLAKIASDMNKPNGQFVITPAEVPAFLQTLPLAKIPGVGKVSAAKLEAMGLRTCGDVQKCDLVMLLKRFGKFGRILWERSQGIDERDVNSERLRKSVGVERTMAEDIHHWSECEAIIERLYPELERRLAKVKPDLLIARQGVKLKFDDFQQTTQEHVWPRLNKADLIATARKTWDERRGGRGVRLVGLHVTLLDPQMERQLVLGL

DinBΔPAD = target: T2, DinBΔPAD (Escherichia coli, UniProt Q47155 1-230); assay: as above; details: protein: recombinant; tags: N-terminal His6 (stop codon at 231; tag inferred from parent plasmid); blunt; each strand also partly self-complementary (called self-complementary in text)
T2 sequence: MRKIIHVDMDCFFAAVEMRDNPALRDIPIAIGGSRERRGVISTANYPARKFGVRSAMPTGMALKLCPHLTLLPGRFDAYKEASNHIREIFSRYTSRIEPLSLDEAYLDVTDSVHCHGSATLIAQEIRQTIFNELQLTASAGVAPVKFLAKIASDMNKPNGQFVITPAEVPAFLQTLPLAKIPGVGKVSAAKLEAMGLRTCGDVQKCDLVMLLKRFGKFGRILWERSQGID

B1: 18mer dsDNA (dsDNA)
DNA 1: TCTAGGGTCCTAGGACCC
DNA 2: GGGTCCTAGGACCCTAGA
- binding result (DinB (DNA polymerase IV)): binds
- binding result (DinBΔPAD): binds
